# In the domain aggregation screens of Martell et al. (2025):
# Test: soluble fraction after stress (log2 fold change); higher = more stays soluble; pooled small domains, quantitative proteomics
# Conditions: stress: pH 4
# In short: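 Pooled custom libraries of small protein domains were subjected to pH 4 and measured by high-throughput quantitative proteomics. The log2 fold change in soluble amount per domain is reported, higher values meaning more remained soluble. This is used as a measure of aggregation propensity.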
row,Sequence,soluble fraction (log2)
1,HMKEVDSESAFAERGISEVWIPALQKMGILTLEALDAANPNKVFNDLGGMRKKLKIDAAMPTKDEVTAWIQ,-0.053
2,HMNLGDSLFHARRKQGLSQEAVAEQLGVSRQTVSKWEANETLPDIRQSKLMAKLYHTSLDELI,0.138
3,HMNVEALIGREGRVTDKIEANGYGRVKVDGDSWKAKSANGAEIRQNTDVRILSIDSVIITVEP,0.22
4,HMKTPAPRETILSLFRQTPDGFVSGERISDELGVSRTAVWKHIRNLRQAGYQIEAIPSRGYQLQQS,-0.0693
5,HMNEDYFTIAGYASLRGVNIDTSKANMLGRKATKLSREYGYDIGKVTDTRFGKVNSYHLDILKSIFEF,-0.646
6,HMREYVGLSPFNKEKTPSFYVNDEKGQFFDFSSGKNGDLITFLQETERLTFMEAVERLAAEAGLPMPA,-0.617
7,HMSHGYVELKAENNDALISALENHTWFENIKLDPETNLVKAILTKPIEAENLNKMLFEKGIILSHLVKRK,-0.286
8,HMSEEAMVSNFRQQEILELARKDGKVTVDGLAELYDVTVQTIRRDLSDLADSGRLKRVHGGAVVPS,-0.465
9,HMSPLTPEEAEVLRILGDHGDMTVDNIATEGKMSAAAVLRVLGVLSAYGLAVPSGPGRWGSRAA,0.152
10,HMTDAYEVLDLNREASDEEIKKRYRELIREHHPDTLIAKGVPQEFVDLANDKMAAINAAYDRIEKDRGL,-0.0939
11,HMNSHQNELDNALTEAHTASRRLLEGTDEYLDLSSQPAYIRRLQHLLAQKYNLGSLSSGVEPNRHIRLLQ,-0.174
12,HMPKITTIHIDPEKISKVIGPGGKTVKKIIEETGAKIDIEDTGKIFIAAVNTEAANKAIDMINGIVA,-0.0168
13,HMVKSIDEIYNEAVKSLANEDYDAAKKLFNYLINNFSDPDKFPLSLFWLAEIEFSSSNFDASKNYYMQ,-0.225
14,HMTVVPNIVNQPEAAGTNLLISSNLKPGNRAVQYSDTVKAGDIISQSPEPGAQATLGGKVDYVISQGPAPT,0.22
15,HMNLEQTIVLGKRLFNNALDTLGKKQRSIKNKQINKLLELLNFKNMNELYQSIGVGDKNPLLMAQMML,-0.045
16,HMADVYFDGKFLGETPVTVAVSTTGKPAHEISLIRGGYEPWSTTYQGNPRPGQTATVMAILVHA,-0.121
17,HMGSNTLEDAYKVLGITPDATDDEVRKAYKKMVIQHHPDKVANLGEDVKKAATIKLQEINNAKEIIFKARN,0.192
18,HMAAINPSALREPATPPEQLSAGDSVLHPRFGRGEILELQQQGGDPRAIVQFINEPKPRTLVLRYAQLRK,0.0977
19,HMPLLADLPNLLRKVLKQHPGRVVDVDLERGRQGREIYHVRVLQENGQVRGLFVDASTGELVS,0.0524

row,Sequence,soluble fraction (log2)
1,HMRGQGRILAMLKIQPEIATKDLAYLLGIRQQSLNELLKKLEKNSYVERRPSEKDRRVMVVHLTEKGKE,0.0202
2,HMDTQITPNKAKEIALAHAGVTEAAANFKKIKLDNKNGKSIYEIEFIANKSRYEFIVDAKNGSIIKFEK,0.102
3,HMSSKRDQFIVLGQEILEKMFKNEGLEFSEKGLLAVMPNFEAESINDIYAKVGEGLISGWDVMKAVYPAY,-0.841
4,HMKSNESAELGERMLNKALLALHTDSSKISDTQWQKLLRDYGAKNKQEILTDIGLGKRLNVMVAHQLMAMG,0.0391
5,HMSKRIFPNEFQRNSPDAMVMLDKMNLSRINVDPLTKSLTLNGGGSVKTLLNGREVSAVEIAALSP,0.156
6,HMSFVEVTVSELKNYVNSHARIKLKSGKEFKGFILDANEEGVIIKVQLRGGTAESTISYNRIDRAAVF,-1.11
7,HMGDPMAIMQLSSNTTPEYWEAYQKYHIQEYEQSNFIRYVNGISVLDDDFVDKVLITIDQHGRIFSELKS,-2.5
8,HMPSPEVELLEDLLSKTDEAEVEAAFHENQALVNDEFKAMLGSLIQELSKTQEADPEIIARIRFIQKLT,-1.27
9,HMGQYLDAATVAAVYHAYHARNWTQATLAKELKVARPTLSNVLNGREAPSVELAARIRAFLGSPEP,≥ 0.43
10,HMNTSMIEHMDKSTFIRFVFTNPVTHDQAVAKLMEKHMWFSTEEKAEAEIDKLLNKTNSLIESGGKLTW,0.22
11,HMYVYEPGEFAVRGSILDVYSYASEFPYRIDFFGDDVESIRTFEVQTQLSKEAKDRVSIVPDTEQ,-0.585
12,HMAEEGEQAASNTAAQAEDRAAELAAAGEKGKQITKTLVAEFGIPKNEAYRLALDAVAAVKAER,-0.427
13,HMSSARKVTVRGVRELPGIFMEKAEILDDGVRFFYRGEMEKLIGALQGLPIRDLTITEPDLEEVFLHFY,-1.43
14,HMNVLGQTAIVRSLRLDATFGEVLLADGGAGLIFKARTHGDETFKKGDRVVLLEYLKDQHAYRVISETDFL,-1.18
15,HMDLDYSGIMNVLNQKYHITFYNNKKIQNLMPKLMIIMGYNSIINEIGHSKSLKALINSFEEKLKSYILT,-0.403
16,HMPPHGHIVELLPEQDFGRIETGDGRLVYFHRNSVLDGDFAQLAVGDAVRFAEEMGERGPQASSVHVE,-0.948
17,HMAKIKVFELKNQINSLIKNKIESKDIIDFIETNFGVKKSHSSALEENEANFIKNYFVHADKA,-0.141
18,HMERFLENAIPVLGETGLDIKSATEDFENALIRQALHLSGGNKNRAATLLGLKRTTFVEMLKRKSL,-0.398
19,HMSLTTKSVEETLGITRQTLHNWIKEGLLPAPKKDFRNWYIWSDEDLENLRNIIEQKTLINNKKQAV,-0.0603
